Results as given in PMC5134462, “Electrochemical Aptasensor for Myoglobin-Specific Recognition Based on Porphyrin Functionalized Graphene-Conjugated Gold Nanocomposites”.

Target: T1, myoglobin (human, UniProt P02144 2-154)
T1 sequence: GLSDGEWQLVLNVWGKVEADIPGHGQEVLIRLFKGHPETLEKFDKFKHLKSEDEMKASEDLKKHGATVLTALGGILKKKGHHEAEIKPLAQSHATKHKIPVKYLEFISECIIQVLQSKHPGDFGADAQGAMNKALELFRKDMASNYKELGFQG
Assay: electrochemical aptasensor (DPV); aptamer immobilized on TCPP-Gr/AuNPs/GCE; 45 min incubation; 1.47e-10 M myoglobin; LOD 6.7e-12 M, linear 2.0e-11 to 7.7e-7 M (not Kd); Aptamer dissolved in T-buffer: 20 mM Tris-HCl, 0.10 M NaCl, 5.0 mM MgCl2, 10 mM TCEP, pH 7.4; binding buffer and temperature not given in the material
Details: protein: native; label: ferrocene (3')

CCCTCCTTTCCTTCGACGTAGATCTGCTGCGTTGTTCCGA (ssDNA, 5' SH-(CH2)6; 3' ferrocene (Fc)) [MbBA (myoglobin-binding aptamer)]
binding result: binds
